According to the RNAGym collection of RNA variant scans (doi:10.7554/elife.90254):

B1: LINE1-mini (parent)
chain: GGCAGAGCUCAACACAGCGUGGCAAAGUGGCUGUGGCUAGACUGCC

Variants of: B1
Test: self-cleavage, relative activity (ratio to wild type); higher = more cleavage; in vitro, sequencing; the parent is a self-cleaving ribozyme

| Variant | self-cleavage |
| --- | --- |
| C15G U20G | 0.03 |
| A24C G40C | 0.05 |
| A4C C42G | 0.05 |
| A25G C46G | 0.78 |
| G7C G30C | 0.13 |
| C10G C15G | 0.03 |
| U9A C37A | 0.21 |
| G2A A39G | 0.22 |
| C3G U38G | 0.05 |
| G2C C10U | 0.03 |
| C45G C46A | 0.21 |
| G35A C45U | 0.13 |
| C10U G19U | 0.21 |
| A12C A39U | 0.02 |
| U20C G21A | 0.8 |
| G17A C23G | 0.13 |
| C15A C45A | 0.08 |
| G19U | 0.77 |
| G33C C42G | 0.05 |
| U9C A16U | 0.04 |
| U20A G21A | 0.76 |
| C10U U34G | 0.32 |
| G35U C45A | 0.12 |
| A6C G7C | 0.08 |

| Variant | self-cleavage |
| --- | --- |
| C18U U20C | 0.98 |
| G30C G44A | 0.2 |
| G2U A26U | 0.11 |
| G17C A25C | 0.51 |
| G30A C37U | 0.11 |
| A12G U38A | 0.06 |
| G1U U34C | 0.06 |
| C23G G27U | 1.17 |
| G5U A14G | 0.06 |
| C15A G30U | 0.07 |
| G1U C15U | 0.21 |
| A39C A41U | 0.4 |
| C8G C15G | 0.05 |
| C15U A26U | 0.74 |
| A6C G30U | 0.9 |
| C13A G35U | 1.13 |
| U34C G35U | 0.18 |
| G17C G27U | 1.06 |
| C18U G33U | 0.05 |
| A14G A26C | 0.67 |
| C31G G33U | 0.06 |
| G5A C31A | 0.08 |
| A12C A14G | 0.04 |
| A6U C45U | 1.18 |

| Variant | self-cleavage |
| --- | --- |
| G5A C8G | 0.22 |
| G5C C31G | 0.06 |
| G27A U43A | 0.08 |
| G27C C37A | 0.06 |
| G5U U9G | 0.11 |
| G33U A41U | 0.09 |
| C13U G35A | 0.71 |
| G7A A14G | 0.24 |
| A4G A26G | 0.48 |
| G17A A41C | 0.04 |
| A4C C13U | 0.35 |
| G5U G33U | 0.05 |
| A4G A39C | 0.06 |
| C8A A41C | 0.36 |
| C18G G27A | 1.04 |
| A11U C46A | 0.09 |
| C15U G33C | 0.09 |
| A14C A25C | 0.07 |
| G7C G19A | 0.14 |
| A12U C15A | 0.09 |
| G19U C23U | 1.03 |
| A11C A25U | 0.09 |
| A12C U28C | 0.02 |
| A14C U34G | 0.26 |

| Variant | self-cleavage |
| --- | --- |
| G29C U38A | 0.08 |
| G2U U20G | 0.05 |
| G2U G33U | 0.04 |
| G1U G35C | 0.07 |
| A14U G19C | 0.15 |
| A6G U38G | 0.01 |
| C8A C45A | 0.7 |
| A25U A41G | 0.38 |
| A12U A25C | 0.22 |
| G19C A26C | 0.68 |
| A24G A41C | 0.04 |
| A16U G29A | 0.38 |
| A14G C15U | 0.11 |
| G1U U38G | 0.03 |
| G2U G21U | 0.14 |
| G29U G35U | 0.14 |
| U28A C46G | 0.87 |
| C13U G22C | 0.1 |
| A25G U32A | 0.11 |
| A14C C23A | 0.21 |
| A24C G33C | 0.04 |
| A12G G30C | 0.08 |
| A25C | 0.66 |
| U20G C37U | 0.06 |

| Variant | self-cleavage |
| --- | --- |
| U9A G36C | 0.06 |
| C8A C42G | 0.19 |
| A4C G35A | 0.17 |
| A16U C46U | 0.1 |
| G1A G44C | 0.47 |
| A14C A39U | 0.07 |
| A11C C37G | 0.01 |
| G21C G40C | 0.07 |
| G27A C46U | 2.06 |
| U9C A14G | 0.03 |
| A39U U43A | 0.06 |
| U34G G44A | 0.04 |
| G29A U38A | 0.28 |
| A16U G33C | 0.07 |
| U9C C45G | 0.02 |
| C3U C13G | 0.14 |
| A25C G44U | 0.16 |
| C31G C45U | 0.08 |
| C10A G29A | 0.06 |
| C15G C45A | 0.02 |
| C23U G40A | 0.12 |
| C31G U34C | 0.14 |
| C13A C37G | 0.05 |
| C13A C37U | 0.34 |

| Variant | self-cleavage |
| --- | --- |
| G29C U32C | 0.7 |
| A16U A26C | 0.06 |
| C3G U32G | 0.11 |
| G5C U43A | 0.05 |
| U20A C42U | 0.12 |
| A11U G29A | 0.14 |
| G40C G44A | 0.12 |
| G2C G44A | 0.17 |
| C13G C37G | 0.04 |
| A4C C10G | 0.03 |
| A12U G17U | 0.09 |
| A11C A26C | 0.03 |
| G29U C37U | 0.05 |
| G5A C45A | 0.22 |
| A11C U38A | 0.02 |
| A14U U20G | 0.28 |
| G22U G27U | 1.46 |
| G40A C46G | 0.11 |
| A14G A24U | 0.43 |
| C15A U43C | 0.04 |
| C15G C46U | 0.06 |
| A11U C13U | 0.04 |
| A11C G33A | 0.04 |
| G19C G36U | 0.06 |

| Variant | self-cleavage |
| --- | --- |
| G19C G36C | 0.05 |
| C13A A16G | 0.03 |
| C13A A16C | 0.08 |
| C8A C37A | 0.12 |
| C3A G33C | 0.1 |
| C3A G33U | 0.15 |
| A14G A16G | 0.1 |
| A11G A25U | 0.02 |
| A6G A11G | 0.02 |
| A6G A11C | 0.02 |
| C10U G27C | 0.23 |
| G2A A4U | 0.58 |
| C23A A26G | 0.94 |
| A11G A41U | 0.02 |
| G7U G29C | 0.03 |
| A4U U20G | 0.09 |
| C3A C8A | 0.85 |
| C10A A25C | 0.05 |
| C10A C15G | 0.04 |
| A14U A26G | 0.34 |
| G22U G29U | 0.72 |
| A4G A12C | 0.03 |
| G17A G30C | 0.83 |
